Entries after “also recorded” stand apart in the source; their conditions may differ.
Tested on: GFP-DLC1
Experiment: GST pull-down of GFP-DLC1 in A549 cells
Type: cell-based
Settings: A549 cell extracts, anti-DLC1 immunoblot, listed as wild-type GST-R8
Source text: However, as talin R8 interacts with RIAM ([Goult et al., 2013b]) and paxillin (shown here) in addition to DLC1, we used several approaches to evaluate whether binding of talin R8 to endogenous RIAM or paxillin might have contributed to the observed results. For RIAM, the level of expression in the cell lines used here varied from very low to undetectable. To detect RIAM protein in any of the cell extracts, we had to use an anti-RIAM immunoprecipitation step followed by anti-RIAM immunoblotting. Using these conditions, endogenous RIAM was detected in A549 and H358 cells, but not in 293T cells (Figure S5A).
Figure S5, related to figure 6. […]
form a detectable complex with GST-talin R8.
(A) The expression of endogenous RIAM in cell lines. Cell extracts were subjected to immunoprecipitation followed by immunoblotting with anti-RIAM antibody.
(B) A complex between GST-talin R8 and endogenous RIAM is undetectable in A549 cells.
A549 cells were co-transfected with GFP-DLC1 and the GST constructs indicated. Cell extracts were subject to a glutathione bead pull down assay followed by immunoblotting with anti-GST and anti-RIAM antibodies on the same membrane (left). No complex between GST-talin R8 and RIAM could be detected. Under the same conditions, wild-type GST-R8 pulled-down the co-transfected GFP-DLC1; the immunoblot with anti-GST and anti-DLC1 on the same membrane is shown (right). […]

B1: GST-R8: GST-tagged talin R8, amino acids 1,453–1,580 (protein)
chain: NSQAGQQGLVEPTQFARANQAIQMACQSLGEPGCTQAQVLSAATIVAKHTSALCNSCRLASARTANPTAKRQFVQSAKEVANSTANLVKTIKALDGDFTEENRAQCRAATAPLLEAVDNLSAFASNPE
modifications: left off: GST, end not stated, kept
- binding of GFP-DLC1: pulled-down; also recorded: did bind GFP-DLC1
